# pKd: −log10 of the molar value.
# Target: Human fibrillin-2 recombinant C-terminal half (rFBN2-C) (human) (UniProt P35556)
# Assay: SPR; FBN2-Ct amine-coupled to a CM5 chip (1700 RU), ADAMTS6 constructs as analytes; Biacore 3000, 25 °C, 10 mM Hepes pH 7.4, 0.15 M NaCl, 2 mM CaCl2, 0.005% or 0.05% P20, 30 μl/min; steady state affinity method
# Recombinant human ADAMTS6-S4TSR (residues 717-1117), sequence (Q9UKP5 717-1117): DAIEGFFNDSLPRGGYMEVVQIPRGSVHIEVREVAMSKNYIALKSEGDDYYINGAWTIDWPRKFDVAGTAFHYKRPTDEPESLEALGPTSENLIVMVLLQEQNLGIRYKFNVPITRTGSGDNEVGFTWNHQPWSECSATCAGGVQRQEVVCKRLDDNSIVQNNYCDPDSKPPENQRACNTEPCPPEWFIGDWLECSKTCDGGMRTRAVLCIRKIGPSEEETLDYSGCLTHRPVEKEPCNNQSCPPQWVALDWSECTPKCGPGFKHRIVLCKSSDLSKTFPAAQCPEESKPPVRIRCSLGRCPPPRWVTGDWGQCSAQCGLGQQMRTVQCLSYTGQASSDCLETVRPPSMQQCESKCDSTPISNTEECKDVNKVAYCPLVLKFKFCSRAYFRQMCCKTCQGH
# Recombinant human ADAMTS6-4TSR (residues 840-1117), sequence (Q9UKP5 840-1117): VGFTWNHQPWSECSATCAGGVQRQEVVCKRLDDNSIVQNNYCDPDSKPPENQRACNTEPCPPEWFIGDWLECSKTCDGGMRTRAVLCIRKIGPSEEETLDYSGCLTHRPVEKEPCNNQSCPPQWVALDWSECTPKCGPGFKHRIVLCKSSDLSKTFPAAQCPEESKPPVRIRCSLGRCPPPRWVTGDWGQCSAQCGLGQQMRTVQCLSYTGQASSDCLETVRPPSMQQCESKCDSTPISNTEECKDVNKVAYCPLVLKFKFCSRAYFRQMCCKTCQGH
# Recombinant human ADAMTS6-Ct (residues 558-1117), sequence (Q9UKP5 558-1117): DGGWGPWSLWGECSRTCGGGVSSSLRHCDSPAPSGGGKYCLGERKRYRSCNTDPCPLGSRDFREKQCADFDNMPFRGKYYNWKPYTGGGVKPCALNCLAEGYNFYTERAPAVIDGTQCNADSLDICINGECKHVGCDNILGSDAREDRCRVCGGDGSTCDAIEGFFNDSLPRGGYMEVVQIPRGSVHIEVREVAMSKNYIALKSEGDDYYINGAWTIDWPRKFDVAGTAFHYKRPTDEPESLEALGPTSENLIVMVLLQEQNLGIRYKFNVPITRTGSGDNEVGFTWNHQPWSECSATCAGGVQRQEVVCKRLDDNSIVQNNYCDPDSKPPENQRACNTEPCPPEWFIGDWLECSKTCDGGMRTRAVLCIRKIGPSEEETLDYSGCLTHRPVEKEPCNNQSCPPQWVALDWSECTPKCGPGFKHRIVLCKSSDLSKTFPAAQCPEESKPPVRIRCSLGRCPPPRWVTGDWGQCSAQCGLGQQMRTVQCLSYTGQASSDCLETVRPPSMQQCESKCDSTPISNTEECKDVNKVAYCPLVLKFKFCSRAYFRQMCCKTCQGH
row,Substance,pKd
1,Recombinant human ADAMTS6-S4TSR (residues 717-1117) (from UniProt Q9UKP5 717-1117) (domain or fragment),6.94
2,Recombinant human ADAMTS6-Ct (residues 558-1117) (from UniProt Q9UKP5 558-1117) (domain or fragment),6.36
3,Recombinant human ADAMTS6-4TSR (residues 840-1117) (from UniProt Q9UKP5 840-1117) (domain or fragment),6.91

# Reference: publication PMC9064305
